# Experimental data: the supplement of paper PMC9112550, “Optimization of the antimicrobial peptide Bac7 by deep mutational scanning” (BMC Biology, 2022)
# Tested on: Escherichia coli TOP10
# Assay: shrunken log2 fold change of peptide-encoding DNA abundance (4.5 h post-induction vs induction); higher = less antimicrobial activity (less host growth inhibition)
# Details: time post-induction: 4.5 h; library: site-saturation at positions 5, 18, 19, 20
# 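Also: peptides expressed intracellularly from a pBAD plasmid library in pooled LB shake-flask culture, induced with 0.3% L-arabinose, DNA abundance read by NGS, three biological replicates, DESeq2 with apeglm shrinkage.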
row,Sequence,shrunken log2 fold change
1,RRIRNRPPRLPRPRPRPELQPRP,-0.0211
2,RRIRPRPPRLPRPRPRPMQPPRP,0.234
3,RRIRQRPPRLPRPRPRPNADPRP,0.00101
4,RRIRNRPPRLPRPRPRPKEFPRP,-0.012
5,RRIRSRPPRLPRPRPRPQEKPRP,-0.393
6,RRIRDRPPRLPRPRPRPHIGPRP,-0.0522
7,RRIRIRPPRLPRPRPRPMECPRP,-0.153
8,RRIRRRPPRLPRPRPRPAWPPRP,0.446
9,RRIRTRPPRLPRPRPRPWQLPRP,-0.189
10,RRIRPRPPRLPRPRPRPDCSPRP,0.152
11,RRIRDRPPRLPRPRPRPVVPPRP,0.0405
12,RRIRYRPPRLPRPRPRPPPSPRP,0.936
13,RRIRQRPPRLPRPRPRPTQHPRP,0.195
14,RRIRYRPPRLPRPRPRPSLLPRP,-0.727
15,RRIRCRPPRLPRPRPRPSRRPRP,-0.181
16,RRIRNRPPRLPRPRPRPPNHPRP,0.0878
17,RRIRLRPPRLPRPRPRPNWVPRP,-0.0131
18,RRIRNRPPRLPRPRPRPSGWPRP,-0.137
19,RRIRGRPPRLPRPRPRPMKWPRP,3.42
20,RRIRVRPPRLPRPRPRPHLLPRP,-0.272
21,RRIRDRPPRLPRPRPRPGTYPRP,-0.227

row,Sequence,shrunken log2 fold change
1,RRIRCRPPRLPRPRPRPLYRPRP,-1.14
2,RRIRPRPPRLPRPRPRPKLMPRP,0.121
3,RRIRIRPPRLPRPRPRPRNFPRP,-0.283
4,RRIRNRPPRLPRPRPRPRKWPRP,0.416
5,RRIRQRPPRLPRPRPRPEVMPRP,0.0824
6,RRIRSRPPRLPRPRPRPCLFPRP,-0.193
7,RRIRHRPPRLPRPRPRPPPQPRP,0.844
8,RRIRARPPRLPRPRPRPKMFPRP,-0.0487
9,RRIRVRPPRLPRPRPRPKPDPRP,0.206
10,RRIRFRPPRLPRPRPRPQKLPRP,-0.211
11,RRIRDRPPRLPRPRPRPLFCPRP,0.208
12,RRIRERPPRLPRPRPRPSNAPRP,-0.086
13,RRIRPRPPRLPRPRPRPMKCPRP,-0.00631
14,RRIRNRPPRLPRPRPRPDRMPRP,-0.282
15,RRIRWRPPRLPRPRPRPYAVPRP,0.0097
16,RRIRERPPRLPRPRPRPVFWPRP,0.39
17,RRIRPRPPRLPRPRPRPVNCPRP,-0.118
18,RRIRDRPPRLPRPRPRPEDSPRP,0.882
19,RRIRKRPPRLPRPRPRPRWRPRP,0.658
20,RRIRFRPPRLPRPRPRPKQPPRP,0.137
21,RRIRTRPPRLPRPRPRPMEPPRP,0.045

row,Sequence,shrunken log2 fold change
1,RRIRPRPPRLPRPRPRPQWLPRP,-0.0256
2,RRIRKRPPRLPRPRPRPAWRPRP,1.18
3,RRIRGRPPRLPRPRPRPEFVPRP,1.15
4,RRIRDRPPRLPRPRPRPYIDPRP,-0.0251
5,RRIRIRPPRLPRPRPRPQSHPRP,-0.383
6,RRIRNRPPRLPRPRPRPTDSPRP,-0.21
7,RRIRARPPRLPRPRPRPWLDPRP,0.0658
8,RRIRTRPPRLPRPRPRPQFLPRP,-0.352
9,RRIRVRPPRLPRPRPRPNMTPRP,-0.256
10,RRIRERPPRLPRPRPRPAADPRP,0.127
11,RRIRVRPPRLPRPRPRPHAGPRP,0.108
12,RRIRGRPPRLPRPRPRPPNLPRP,0.463
13,RRIRVRPPRLPRPRPRPLEAPRP,0.242
14,RRIRGRPPRLPRPRPRPDHRPRP,-0.178
15,RRIRERPPRLPRPRPRPNDNPRP,-0.882
16,RRIRNRPPRLPRPRPRPEWAPRP,0.0317
17,RRIRPRPPRLPRPRPRPLARPRP,0.388
18,RRIRWRPPRLPRPRPRPVMKPRP,0.12
19,RRIRDRPPRLPRPRPRPCMCPRP,-0.0426
20,RRIRPRPPRLPRPRPRPHRCPRP,-0.299
